Molecular target: RGD-recognizing receptors (on monocytes)
Experiment: cell-based or functional assay

long-duration monocyte-platelet interactions (video analysis, flow): 44 % decrease
Binder: RGDS [small RGD peptides, containing the amino-acid sequence Arg-Gly-Asp-Ser]
